# Where a chain is given by its changes, count along the chain named.
# B1: 13E8-13F11 conjugated to IRD800CW (VHH, not shown: small tags and cut ends)
# chain: EVQLVESGGGLVQAGGSLRLSCAASRSISPMGWYRQAPGKQRELVAIMPSSGPPIYADSVQGRFTISRDNAKNTVYLQMNSLKPEDTAVYYCNVGGGYWGQGTQVTVSSGGGGSGGGGSGGGGSEVQLVESGGRLVQPGDSLRLSCAASGRTFSDNAMGWFRQAPGKERRFVAGISWAGGSTYYSDSVKGRFTISRDNAKNTVYLQMNSLKPEDTAVYYCAAGLRAWVQRMPKDYNYWGQGTQVTVSS
# modifications: IRD800CW by maleimide chemistry on the C-terminal free cysteine
# B2: 13E8-13F11 conjugated to Alexa Fluor 647 (VHH, not shown: small tags and cut ends)
# chain: B1 chain
# modifications: Alexa Fluor 647 by maleimide chemistry on the C-terminal free cysteine
# B3: 13E8 (VHH)
# VHH: EVQLVESGGGLVQAGGSLRLSCAASRSISPMGWYRQAPGKQRELVAIMPSSGPPIYADSVQGRFTISRDNAKNTVYLQMNSLKPEDTAVYYCNVGGGYWGQGTQVTVSS
# B4: 13F11-13E8 conjugated to Alexa Fluor 647 (VHH, not shown: small tags and cut ends)
# chain: EVQLVESGGRLVQPGDSLRLSCAASGRTFSDNAMGWFRQAPGKERRFVAGISWAGGSTYYSDSVKGRFTISRDNAKNTVYLQMNSLKPEDTAVYYCAAGLRAWVQRMPKDYNYWGQGTQVTVSSGGGGSGGGGSGGGGSEVQLVESGGGLVQAGGSLRLSCAASRSISPMGWYRQAPGKQRELVAIMPSSGPPIYADSVQGRFTISRDNAKNTVYLQMNSLKPEDTAVYYCNVGGGYWGQGTQVTVSS
# modifications: Alexa Fluor 647 by maleimide chemistry on the C-terminal free cysteine
# B5: 13C11 (VHH)
# VHH: EVQLVESGGGLVQAGGSLRLSCAASGLTFSSYTMAWYRQAPGKEREVVAAISSGDSIYHEGSVQGRFIISRDNAKNTVYLQMNSLKAEDTAVYYCRANGPGTYWGQGTQVTVSS
# B6: 13G10 (VHH)
# VHH: B5 VHH with G61D
# B7: 13F11-13F11 conjugated to Alexa Fluor 647 (VHH, part only; not given: C-terminal cysteine and His tag, not shown: small tags and cut ends)
# chain, part: EVQLVESGGRLVQPGDSLRLSCAASGRTFSDNAMGWFRQAPGKERRFVAGISWAGGSTYYSDSVKGRFTISRDNAKNTVYLQMNSLKPEDTAVYYCAAGLRAWVQRMPKDYNYWGQGTQVTVSSGGGGSGGGGSGGGGSEVQLVESGGRLVQPGDSLRLSCAASGRTFSDNAMGWFRQAPGKERRFVAGISWAGGSTYYSDSVKGRFTISRDNAKNTVYLQMNSLKPEDTAVYYCAAGLRAWVQRMPKDYNYWGQGTQVTVSS
# modifications: Alexa Fluor 647 by maleimide chemistry on the C-terminal free cysteine
# B8: 13F11 (VHH)
# VHH: EVQLVESGGRLVQPGDSLRLSCAASGRTFSDNAMGWFRQAPGKERRFVAGISWAGGSTYYSDSVKGRFTISRDNAKNTVYLQMNSLKPEDTAVYYCAAGLRAWVQRMPKDYNYWGQGTQVTVSS
# B9: 13F11 conjugated to Alexa Fluor 647 (VHH, not shown: small tags and cut ends)
# VHH: B8 VHH
# modifications: Alexa Fluor 647 by maleimide chemistry on the C-terminal free cysteine
# Legend:
# rat IGF2R on cells (rat) = assay: cell-based or functional assay
# [1] = biological target: human IGF2R on cells (human) (UniProt P11717); assay: cell-based or functional assay
# [2] = biological target: recombinant human extracellular domain of IGF2R (human) (UniProt P11717); assay: titration ELISA of the Alexa Fluor 647 conjugate on recombinant hIGF2R-ECD, one-site specific binding fit
# [3] = biological target: recombinant human extracellular domain of IGF2R (human) (UniProt P11717); assay: titration ELISA on recombinant hIGF2R-ECD, direct read-out of the Alexa Fluor 647 conjugate (fluorescence intensity 700 nm), one-site specific binding fit (Examples 4.1, 6.1)
# [4] = biological target: recombinant human extracellular domain of IGF2R (human) (UniProt P11717); assay: competition ELISA on human IGF2R ectodomain: 250 nM unlabelled 13E8 against 10 nM labelled 13F11 (competitor: 13F11-A647)
# [5] = biological target: recombinant human extracellular domain of IGF2R (human) (UniProt P11717); assay: binding assay on plates coated with hIGF2R-ECD, three-fold VHH dilutions, bound VHH detected with anti-VHH antibody (Example 4.1); y axis OD415
# [6] = biological target: recombinant human extracellular domain of IGF2R (human) (UniProt P11717); assay: binding assay on hIGF2R-ECD coated plates, detection with anti-VHH antibody
# [7] = biological target: recombinant human extracellular domain of IGF2R (human) (UniProt P11717); assay: titration ELISA on hIGF2R-ECD, direct read out at 647 nm, one-site specific binding fit
Binder,Kd [2],Bmax [3],EC50 (read off the curve) [5],also measured
B1,–,–,–,"endocytic rate constant, ke (rat IGF2R on cells (rat)): 0.7 min⁻¹; endocytic rate constant, ke [1]: 1.5 min⁻¹"
B2,2.5 nM,94.7,–,–
B3,–,–,–,decrease of the fluorescence intensity of labelled 13F11 [4]: < 5%
B4,2.5 nM,79.2,–,–
B5,–,–,3 nM,–
B6,–,–,2 nM,–
B7,3.1 nM,63.4,–,–
B8,–,–,0.4 nM,Kd [6]: 0.23 nM
B9,–,20.1,–,Kd [7]: 1 nM
